From article PMC2773741

How the values were obtained:
[1] = target: cone-rod homeobox (CRX), V5-tagged (UniProt O43186); test: co-immunoprecipitation, band densitometry normalized to input; details: COS-1 cells cotransfected; detection mouse anti-Xpress; parent: est. 100; read off a plot
[2] = target: neural retina leucine zipper (NRL), V5-tagged (UniProt P54845); test: as above; details: COS-1 cells cotransfected; IP goat anti-V5; detection mouse anti-Xpress; parent: est. 100; read off a plot
Chain of neural retina leucine zipper (NRL), V5-tagged (P54845 whole entry): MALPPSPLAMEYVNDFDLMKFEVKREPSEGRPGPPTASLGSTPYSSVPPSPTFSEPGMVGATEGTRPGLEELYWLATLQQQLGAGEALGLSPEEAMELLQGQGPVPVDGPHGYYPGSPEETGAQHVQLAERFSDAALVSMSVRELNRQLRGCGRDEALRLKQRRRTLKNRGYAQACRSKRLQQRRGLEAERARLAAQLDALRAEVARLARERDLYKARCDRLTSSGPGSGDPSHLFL

Chain of cone-rod homeobox (CRX), V5-tagged (O43186 whole entry): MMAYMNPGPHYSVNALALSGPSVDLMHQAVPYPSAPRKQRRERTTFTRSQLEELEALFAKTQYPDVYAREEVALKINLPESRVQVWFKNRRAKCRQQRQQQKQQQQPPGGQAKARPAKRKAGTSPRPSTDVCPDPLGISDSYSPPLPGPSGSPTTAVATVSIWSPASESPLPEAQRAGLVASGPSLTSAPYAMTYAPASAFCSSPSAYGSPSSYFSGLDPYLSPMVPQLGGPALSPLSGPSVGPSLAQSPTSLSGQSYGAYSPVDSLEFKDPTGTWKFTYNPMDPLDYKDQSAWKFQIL
Chain of photoreceptor-specific nuclear receptor NR2E3 (nuclear receptor subfamily 2 group E member 3), wild type, Q9Y5X4-1 p.R76Q (Q9Y5X4 whole entry R76Q): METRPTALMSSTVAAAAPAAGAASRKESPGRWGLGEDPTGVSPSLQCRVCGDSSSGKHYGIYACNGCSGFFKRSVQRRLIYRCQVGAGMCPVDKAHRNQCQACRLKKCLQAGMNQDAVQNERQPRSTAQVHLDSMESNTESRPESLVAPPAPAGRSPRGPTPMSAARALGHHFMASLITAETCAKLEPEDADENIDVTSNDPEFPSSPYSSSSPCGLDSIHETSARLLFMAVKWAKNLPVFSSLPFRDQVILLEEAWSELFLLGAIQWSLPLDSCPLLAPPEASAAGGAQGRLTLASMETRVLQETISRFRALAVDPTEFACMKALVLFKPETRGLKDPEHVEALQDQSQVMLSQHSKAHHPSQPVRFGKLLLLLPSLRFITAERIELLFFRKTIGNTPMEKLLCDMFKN
Chain of photoreceptor-specific nuclear receptor NR2E3 (nuclear receptor subfamily 2 group E member 3), wild type, Q9Y5X4-1 p.L263P (Q9Y5X4 whole entry L263P): as the sequence (Q9Y5X4 whole entry R76Q) above, with Q76R, L263P counted along it
Chain of photoreceptor-specific nuclear receptor NR2E3 (nuclear receptor subfamily 2 group E member 3), wild type, Q9Y5X4-1 p.A256E (Q9Y5X4 whole entry A256E): as the sequence (Q9Y5X4 whole entry R76Q) above, with Q76R, A256E counted along it
Chain of photoreceptor-specific nuclear receptor NR2E3 (nuclear receptor subfamily 2 group E member 3), wild type, Q9Y5X4-1 p.G56R (Q9Y5X4 whole entry G56R): as the sequence (Q9Y5X4 whole entry R76Q) above, with G56R, Q76R counted along it
Chain of photoreceptor-specific nuclear receptor NR2E3 (nuclear receptor subfamily 2 group E member 3), wild type, Q9Y5X4-1 p.V302I (Q9Y5X4 whole entry V302I): as the sequence (Q9Y5X4 whole entry R76Q) above, with Q76R, V302I counted along it
Chain of photoreceptor-specific nuclear receptor NR2E3 (nuclear receptor subfamily 2 group E member 3), wild type, Q9Y5X4-1 p.E121K (Q9Y5X4 whole entry E121K): as the sequence (Q9Y5X4 whole entry R76Q) above, with Q76R, E121K counted along it
Chain of photoreceptor-specific nuclear receptor NR2E3 (nuclear receptor subfamily 2 group E member 3), wild type, Q9Y5X4-1 p.N65_C67del (Q9Y5X4 other isoform, or with tags, fused parts or gaps p.N65_C67del): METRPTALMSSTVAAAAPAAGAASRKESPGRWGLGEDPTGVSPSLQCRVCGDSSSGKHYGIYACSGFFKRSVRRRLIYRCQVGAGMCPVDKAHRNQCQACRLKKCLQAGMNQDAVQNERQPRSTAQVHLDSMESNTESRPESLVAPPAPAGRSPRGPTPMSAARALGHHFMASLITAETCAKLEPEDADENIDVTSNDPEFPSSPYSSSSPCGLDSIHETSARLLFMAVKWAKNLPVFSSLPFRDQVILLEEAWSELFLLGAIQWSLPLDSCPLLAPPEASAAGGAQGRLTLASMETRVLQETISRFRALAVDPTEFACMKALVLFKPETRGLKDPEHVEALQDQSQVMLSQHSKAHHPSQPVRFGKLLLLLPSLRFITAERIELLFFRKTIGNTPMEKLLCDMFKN
Chain of photoreceptor-specific nuclear receptor NR2E3 (nuclear receptor subfamily 2 group E member 3), wild type, Q9Y5X4-1 p.R97H (Q9Y5X4 whole entry R97H): as the sequence (Q9Y5X4 whole entry R76Q) above, with Q76R, R97H counted along it
Chain of photoreceptor-specific nuclear receptor NR2E3 (nuclear receptor subfamily 2 group E member 3), wild type, Q9Y5X4-1 p.G88V (Q9Y5X4 whole entry G88V): as the sequence (Q9Y5X4 whole entry R76Q) above, with Q76R, G88V counted along it
Chain of photoreceptor-specific nuclear receptor NR2E3 (nuclear receptor subfamily 2 group E member 3), wild type, Q9Y5X4-1 p.R104Q (Q9Y5X4 whole entry R104Q): as the sequence (Q9Y5X4 whole entry R76Q) above, with Q76R, R104Q counted along it

| Substance | percent of parent [1] [%] | percent of parent [2] [%] |
| --- | --- | --- |
| photoreceptor-specific nuclear receptor NR2E3 (nuclear receptor subfamily 2 group E member 3), wild type, Q9Y5X4-1 p.A256E | 55 | 62 |
| photoreceptor-specific nuclear receptor NR2E3 (nuclear receptor subfamily 2 group E member 3), wild type, Q9Y5X4-1 p.E121K | 87 | 120 |
| photoreceptor-specific nuclear receptor NR2E3 (nuclear receptor subfamily 2 group E member 3), wild type, Q9Y5X4-1 p.G56R | 48 | 110 |
| photoreceptor-specific nuclear receptor NR2E3 (nuclear receptor subfamily 2 group E member 3), wild type, Q9Y5X4-1 p.G88V | 99 | 110 |
| photoreceptor-specific nuclear receptor NR2E3 (nuclear receptor subfamily 2 group E member 3), wild type, Q9Y5X4-1 p.L263P | 24 | 16 |
| photoreceptor-specific nuclear receptor NR2E3 (nuclear receptor subfamily 2 group E member 3), wild type, Q9Y5X4-1 p.L336P | 32 | 10 |
| photoreceptor-specific nuclear receptor NR2E3 (nuclear receptor subfamily 2 group E member 3), wild type, Q9Y5X4-1 p.L353V | 30 | 10 |
| photoreceptor-specific nuclear receptor NR2E3 (nuclear receptor subfamily 2 group E member 3), wild type, Q9Y5X4-1 p.M407K | 76 | 61 |
| photoreceptor-specific nuclear receptor NR2E3 (nuclear receptor subfamily 2 group E member 3), wild type, Q9Y5X4-1 p.N65_C67del | 84 | 100 |
| photoreceptor-specific nuclear receptor NR2E3 (nuclear receptor subfamily 2 group E member 3), wild type, Q9Y5X4-1 p.R76Q | 95 | 110 |
| photoreceptor-specific nuclear receptor NR2E3 (nuclear receptor subfamily 2 group E member 3), wild type, Q9Y5X4-1 p.R76W | 88 | 98 |
| photoreceptor-specific nuclear receptor NR2E3 (nuclear receptor subfamily 2 group E member 3), wild type, Q9Y5X4-1 p.R97H | 43 | 110 |
| photoreceptor-specific nuclear receptor NR2E3 (nuclear receptor subfamily 2 group E member 3), wild type, Q9Y5X4-1 p.R104Q | 42 | 100 |
| photoreceptor-specific nuclear receptor NR2E3 (nuclear receptor subfamily 2 group E member 3), wild type, Q9Y5X4-1 p.R309G | 55 | 37 |
| photoreceptor-specific nuclear receptor NR2E3 (nuclear receptor subfamily 2 group E member 3), wild type, Q9Y5X4-1 p.R311Q | 44 | 74 |
| photoreceptor-specific nuclear receptor NR2E3 (nuclear receptor subfamily 2 group E member 3), wild type, Q9Y5X4-1 p.R334G | 81 | 69 |
| photoreceptor-specific nuclear receptor NR2E3 (nuclear receptor subfamily 2 group E member 3), wild type, Q9Y5X4-1 p.R385P | 60 | 37 |
| photoreceptor-specific nuclear receptor NR2E3 (nuclear receptor subfamily 2 group E member 3), wild type, Q9Y5X4-1 p.V232I | 87 | 87 |
| photoreceptor-specific nuclear receptor NR2E3 (nuclear receptor subfamily 2 group E member 3), wild type, Q9Y5X4-1 p.V302I | 86 | 56 |
| photoreceptor-specific nuclear receptor NR2E3 (nuclear receptor subfamily 2 group E member 3), wild type, Q9Y5X4-1 p.W234S | 95 | 58 |
